Reference: US20240003880A1 (TRUSTEES OF COLUMBIA UNIVERSITY IN THE CITY OF NEW YORK, published 2024)

Tests used:
[1] = target: T1, SARS-CoV-2 nucleocapsid phosphoprotein (SARS-CoV-2, UniProt P0DTC9 1-419); assay: Western blot on NP denatured with DTT and heat (FIG. 4)
[2] = target: T1, SARS-CoV-2 nucleocapsid phosphoprotein; assay: ELISA (FIG. 3)

Row | Binder | binding result [1] | binding result [2]
1 | antibody 9-29 (antibody, V domains shown) VH: EVQLVQSGAEVKKSGESLKISCKGSGYSFTNYWIGWVRQMPGKGLEWMGIIYPGDSDTRHSPSFQGQVTISADKSLRTAYLQWSSLKASDTAIYYCARGADGYSSYFDYWGQGTLVTVSS VL: NFMLTQPHSVSESPGKTVIISCTRSSGSIASDYVQWYQQRPGSVPTTVIYEDNERPSGVPDRFSGSIDSSSNSASLTISGLKTEDEADYYCQSYDSSVQVFGGGTKLTVL | binds | –
2 | antibody 9-9 (antibody, V domains shown) VH: EVQLVESGGGLVQPGGSLRLSCAASGFIFSNYWMSWVRQAPGKGLEWVANTKQDDSEKYYVDAVKGRFTISRDNAKNSLYLQMNSLRADDTAVYYCAREVRIAVTGTSRDEDYSYNGMDVWGQGTTVTVSS VL: SYELTQPPSVSVSPGQTARITCSADALAKQYAYWYQQKPGQAPVLVIFKDSERPSGIPERFSGSSSGTTVTLTISRVQAEDEADYYCQSADSSGYYWAFGGGTKLTVL | binds | –
3 | antibody 9-8 (antibody, V domains shown) VH: EVQLVESGGGLVQPGGSLRLSCAASGFTFSTYWMSWVRQAPGKGLEWVANIKQDGSEKYYVDSVKGRFTISRDNAKNSLYLQMNSLRAEDTAVYYCARYSLDYYDTSGSFDYWGQGTLVAVSS VL: SYELTQPPSVSVSPGQTARITCSGDALPKKYAYWYQQKSGQAPVLVIYEDSKRPSGIPERFSGSSSGTMATLTISGAQVEDEADYYCYSTDSSGNHRGVFGGGTQLTVL | – | binds
